Assay [1] has as its target T1, human FcγRIa (human, UniProt P12314 16-292, limits assumed).
T1 construct: also called FcyRIa; CD64
Put plainly: SPR (Biacore), FcγR over captured antibody; binding amount relative to IL6R-BF648/IL6R-L x100.
T1 sequence (P12314 16-292 limits assumed): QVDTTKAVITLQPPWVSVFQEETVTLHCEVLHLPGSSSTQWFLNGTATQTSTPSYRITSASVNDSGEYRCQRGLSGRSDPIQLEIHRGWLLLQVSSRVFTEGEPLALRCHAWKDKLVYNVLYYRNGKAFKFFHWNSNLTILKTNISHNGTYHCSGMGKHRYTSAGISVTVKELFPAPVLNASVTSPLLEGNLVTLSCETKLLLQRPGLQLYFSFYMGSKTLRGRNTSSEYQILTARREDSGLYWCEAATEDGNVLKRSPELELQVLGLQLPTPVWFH

For a further assay, the target named is T2, human FcγRIIa type H (human, UniProt P12318 36-217).
T2 construct: also called FcyRIIaH; FcγRIIa(H)
T2 sequence: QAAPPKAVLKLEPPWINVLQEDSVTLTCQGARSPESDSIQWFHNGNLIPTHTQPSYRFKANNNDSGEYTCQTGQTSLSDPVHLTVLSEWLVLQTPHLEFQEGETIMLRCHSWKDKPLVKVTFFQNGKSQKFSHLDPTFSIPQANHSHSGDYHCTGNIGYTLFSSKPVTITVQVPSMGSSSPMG
Described as above.

The target in assay [2] is T3, human FcγRIIb (human, UniProt P31994 43-217, limits assumed).
T3 construct: also called FcyRIfb; FcγIIB
T3 sequence: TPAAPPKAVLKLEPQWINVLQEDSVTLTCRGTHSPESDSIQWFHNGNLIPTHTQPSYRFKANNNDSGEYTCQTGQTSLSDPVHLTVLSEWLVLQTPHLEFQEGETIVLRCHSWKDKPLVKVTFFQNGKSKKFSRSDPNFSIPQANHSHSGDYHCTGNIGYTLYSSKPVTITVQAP
The assay is described as above.

In another assay the target is T4, human FcγRIIIa type V (human, UniProt P08637 17-208, limits assumed).
T4 construct: also called FcyRIIIa; FcγRIIIaV
T4 sequence (P08637 other isoform, or with tags, fused parts or gaps limits assumed): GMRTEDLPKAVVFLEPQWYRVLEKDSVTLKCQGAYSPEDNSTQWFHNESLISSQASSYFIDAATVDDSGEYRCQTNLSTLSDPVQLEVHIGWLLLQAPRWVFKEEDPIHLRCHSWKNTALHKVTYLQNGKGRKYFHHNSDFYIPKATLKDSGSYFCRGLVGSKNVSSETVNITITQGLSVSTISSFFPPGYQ
The assay is described as above.

The target in assay [3] is T5, human FcγRIIa(R) (allotype R131) (human, UniProt P12318 36-217).
T5 construct: Soluble analyte in SPR; also called hFcgRIIa(R); FcgRIIaR
T5 chain: T2 sequence with H133R
Put plainly: SPR (Biacore), antibody captured, FcγR analyte, 25 C; normalised to captured antibody, GpH7-B3/GpL16-k0 = 100.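 Note: antibodies held on sensor chips through immobilized antigen peptide, Protein A, Protein A/G or Protein L, with HBS-EP+ running buffer and FcγR in solution.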
Experimental: (§1) Interaction between each modified antibody and Fcγ receptor prepared in the manner described above was analyzed using the BIACORE™ T100 surface plasmon resonance system (GE Healthcare), BIACORE™ T200 surface plasmon resonance system (GE Healthcare), BIACORE™ A100 surface plasmon resonance system or BIACORE™ 4000 surface plasmon resonance system. HBS-EP+(GE Healthcare) was used for the running buffer, and measurements were carried out at 25° C. The chips used were chips in which antigen peptides, Protein A (Thermo Scientific), Protein A/G (Thermo Scientific) or Protein L (ACTIGEN® protein (Alltech or BioVision) were immobilized on the Series S Sensor Chip CM5 (GE Healthcare) or Series S Sensor Chip CM4 (GE Healthcare) by amine coupling, or chips in which preliminarily biotinylated antigen peptides were allowed to interact and then immobilized on the Series S Sensor Chip SA (certified) (GE Healthcare). The target antibodies were captured on these sensor chips, Fcγ receptor diluted with the running buffer was allowed to interact, followed by measurement of the amount of bound antibody. The amounts bound were compared between antibodies. However, since the amount of Fcγ receptor bound depends on the amount of captured antibody, the values used for comparison were first corrected by dividing the amount of Fcγ receptor bound by the captured amount of each antibody. Through reaction with 10 mM glycine-HCl at pH 1.5, the sensor chips were regenerated by washing off antibody captured on the sensor chips and used repeatedly.
(§2) Binding strength was evaluated according to the following method based on the results of analyzing the interaction with each FcγR. […] That value was then further multiplied by 100, and the resulting value was used as an indicator of relative binding activity to each FcγR.

The target in assay [4] is T6, human FcγRIa (human, UniProt P12314 16-292, limits assumed).
T6 construct: Soluble analyte in SPR; also called hFcgRIa; FcgRIa
The description is as above.
T6 sequence (P12314 16-292 limits assumed): as the sequence (P12314 16-292 limits assumed) above
Experimental: as §1, §2

In assay [5] the target is T7, human FcγRIIb (human, UniProt P31994 43-217, limits assumed).
T7 construct: Soluble analyte in SPR; also called hFcgRIIb; FcgRIIb
T7 sequence: T3 sequence
The description is as above.
Experimental: as §1, §2

Assay [6] addresses T8, human FcγRIIIa(F) (allotype F158) (human, UniProt P08637 17-208, limits assumed).
T8 construct: also called hFcgRIIIa(F); FcgRIIIaF
The assay is described as above.
Experimental: as §1, §2

Assay [7] has as its target T9, human FcγRIIa(H) (allotype H131) (human, UniProt P12318 36-217).
T9 construct: Soluble analyte in SPR; also called hFcgRIIa(H); FcgRIIaH
T9 sequence: T2 sequence
The assay is described as above.
Experimental: as §1, §2

Substitutions are numbered along the chain they refer to. Numbers in names are those of the source.

T8 sequence (P08637 other isoform, or with tags, fused parts or gaps limits assumed): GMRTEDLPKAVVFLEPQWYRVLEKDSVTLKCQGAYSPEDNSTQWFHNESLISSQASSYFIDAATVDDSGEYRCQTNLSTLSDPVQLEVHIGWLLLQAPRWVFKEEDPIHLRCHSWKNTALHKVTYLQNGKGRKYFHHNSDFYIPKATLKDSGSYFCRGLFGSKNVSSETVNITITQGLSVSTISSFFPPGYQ

B1: IL6R-BP102/IL6R-L (antibody, human IgG1, name in EU numbering)
heavy: QVQLQESGPGLVKPSETLSLTCAVSGHSISHDHAWSWVRQPPGEGLEWIGFISYSGITNYNPSLQGRVTISRDNSKNTLYLQMNSLRAEDTAVYYCARSLARTTAMDYWGEGTLVTVSSASTKGPSVFPLAPSSKSTSGGTAALGCLVKDYFPEPVTVSWNSGALTSGVHTFPAVLQSSGLYSLSSVVTVPSSSLGTQTYICNVNHKPSNTKVDKKVEPKSCDKTHTCPPCPAPELLGGDSVFLFPPKPKDTLMISRTPEVTCVVVDVQHEDPEVKFNWYVDGVEVHNAKTKPREEQYNSTYRVVSVLTVLHQDWLNGKEYKCKVSNKALPAPIEKTISKAKGQPREPQVYTLPPSRDELTKNQVSLTCLVKGFYPSDIAVEWESNGQPENNYKTTPPVLDSDGSFFLYSKLTVDKSRWQQGNVFSCSVMHEALHNHYTQESLSLSP
light: DIQMTQSPSSLSASVGDRVTITCRASQDISSYLNWYQQKPGKAPKLLIYYTSRLHSGVPSRFSGSGSGTDFTFTISSLQPEDIATYYCQQGNTLPYTFGQGTKVEIK
As for B1, the relative binding with human FcγRIa [1] is 104 % of IL6R-BF648/IL6R-L; in the assay with human FcγRIIa type H it was 66 % of IL6R-BF648/IL6R-L; in the assay with human FcγRIIb [2], 106 % of IL6R-BF648/IL6R-L; in the assay with human FcγRIIIa type V, 86 % of IL6R-BF648/IL6R-L.

B2: IL6R-BP107/IL6R-L (antibody, human IgG1, name in EU numbering)
heavy: B1 heavy with Q269S, H270E
light: B1 light
Consider B2, for which the relative binding in the assay with human FcγRIa [1] was 123 % of IL6R-BF648/IL6R-L; with human FcγRIIa type H, 114 % of IL6R-BF648/IL6R-L; with human FcγRIIb [2], 118 % of IL6R-BF648/IL6R-L; in the assay with human FcγRIIIa type V it was 129 % of IL6R-BF648/IL6R-L.

B3: IL6R-BP106/IL6R-L (antibody, human IgG1, name in EU numbering)
heavy: B1 heavy with Q269S, H270D
light: B1 light
For the molecule B3, the relative binding is 127 % of IL6R-BF648/IL6R-L with human FcγRIa [1], 110 % of IL6R-BF648/IL6R-L with human FcγRIIa type H, 116 % of IL6R-BF648/IL6R-L with human FcγRIIb [2] and 127 % of IL6R-BF648/IL6R-L with human FcγRIIIa type V.

B4: IL6R-BP142/IL6R-L (antibody, human IgG1, name in EU numbering)
heavy: B1 heavy with Q269S, K328N
light: B1 light
For the molecule B4, the relative binding with human FcγRIa [1] was 98 % of IL6R-BF648/IL6R-L; in the assay with human FcγRIIa type H, 97 % of IL6R-BF648/IL6R-L; with human FcγRIIb [2] it was 106 % of IL6R-BF648/IL6R-L; in the assay with human FcγRIIIa type V, 102 % of IL6R-BF648/IL6R-L.

B5: IL6R-BP119/IL6R-L (antibody, human IgG1, name in EU numbering)
heavy: B1 heavy with Q269S, K328M
light: B1 light
B5: the relative binding with human FcγRIa [1] is 117 % of IL6R-BF648/IL6R-L; with human FcγRIIa type H it was 133 % of IL6R-BF648/IL6R-L; with human FcγRIIb [2] it was 110 % of IL6R-BF648/IL6R-L; in the assay with human FcγRIIIa type V, 145 % of IL6R-BF648/IL6R-L.

B6: IL6R-G1d/IL6R-L (antibody, human IgG1)
heavy: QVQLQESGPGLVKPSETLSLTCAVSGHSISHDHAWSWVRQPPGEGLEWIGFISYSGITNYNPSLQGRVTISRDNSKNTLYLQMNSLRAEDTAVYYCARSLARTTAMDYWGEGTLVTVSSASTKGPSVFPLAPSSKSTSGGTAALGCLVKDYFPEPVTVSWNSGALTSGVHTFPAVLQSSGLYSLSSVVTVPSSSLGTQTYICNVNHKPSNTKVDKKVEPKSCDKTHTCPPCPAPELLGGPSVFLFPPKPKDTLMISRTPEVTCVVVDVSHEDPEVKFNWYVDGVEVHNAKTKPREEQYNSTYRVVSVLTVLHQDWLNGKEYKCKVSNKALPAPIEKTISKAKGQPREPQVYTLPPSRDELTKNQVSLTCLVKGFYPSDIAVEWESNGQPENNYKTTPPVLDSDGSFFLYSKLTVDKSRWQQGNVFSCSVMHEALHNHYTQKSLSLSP
light: B1 light
notes: Anti-human IL-6 receptor IgG1 with the G1d constant region (C-terminal Gly and Lys removed); also called IgG1
As to B6, the relative binding in the assay with human FcγRIa [1] is 140 % of IL6R-BF648/IL6R-L; with human FcγRIIa type H it was 1670 % of IL6R-BF648/IL6R-L; with human FcγRIIb [2], 62 % of IL6R-BF648/IL6R-L; in the assay with human FcγRIIIa type V, 3350 % of IL6R-BF648/IL6R-L.

B7: IL6R-BP911/IL6R-L (antibody, human IgG1, name in EU numbering)
heavy: B1 heavy with Q269S, A332K
light: B1 light
Turning to B7, the relative binding with human FcγRIa [1] is 52 % of IL6R-BF648/IL6R-L; in the assay with human FcγRIIa type H, 108 % of IL6R-BF648/IL6R-L; with human FcγRIIb [2] it was 119 % of IL6R-BF648/IL6R-L; with human FcγRIIIa type V, 120 % of IL6R-BF648/IL6R-L.

B8: IL6R-BP136/IL6R-L (antibody, human IgG1, name in EU numbering)
heavy: B1 heavy with Q269S, K328A
light: B1 light
In the case of B8, the relative binding is 117 % of IL6R-BF648/IL6R-L with human FcγRIa [1], 103 % of IL6R-BF648/IL6R-L with human FcγRIIa type H, 119 % of IL6R-BF648/IL6R-L with human FcγRIIb [2] and 102 % of IL6R-BF648/IL6R-L in the assay with human FcγRIIIa type V.

B9: IL6R-BP116/IL6R-L (antibody, human IgG1, name in EU numbering)
heavy: B1 heavy with Q269S, K328T
light: B1 light
For the molecule B9, the relative binding was 110 % of IL6R-BF648/IL6R-L with human FcγRIa [1], 110 % of IL6R-BF648/IL6R-L in the assay with human FcγRIIa type H, 108 % of IL6R-BF648/IL6R-L with human FcγRIIb [2] and 114 % of IL6R-BF648/IL6R-L with human FcγRIIIa type V.

B10: IL6R-BP118/IL6R-L (antibody, human IgG1, name in EU numbering)
heavy: B1 heavy with Q269S, K328S
light: B1 light
For B10, the relative binding was 101 % of IL6R-BF648/IL6R-L with human FcγRIa [1], 128 % of IL6R-BF648/IL6R-L with human FcγRIIa type H, 104 % of IL6R-BF648/IL6R-L with human FcγRIIb [2] and 144 % of IL6R-BF648/IL6R-L in the assay with human FcγRIIIa type V.

B11: IL6R-BP103/IL6R-L (antibody, human IgG1, name in EU numbering)
heavy: B1 heavy with Q269V
light: B1 light
Turning to B11, the relative binding was 56 % of IL6R-BF648/IL6R-L with human FcγRIa [1], 69 % of IL6R-BF648/IL6R-L with human FcγRIIa type H, 107 % of IL6R-BF648/IL6R-L with human FcγRIIb [2] and 77 % of IL6R-BF648/IL6R-L with human FcγRIIIa type V.

B12: IL6R-BP121/IL6R-L (antibody, human IgG1, name in EU numbering)
heavy: B1 heavy with Q269S, K328Q
light: B1 light
For B12, the relative binding in the assay with human FcγRIa [1] is 118 % of IL6R-BF648/IL6R-L; in the assay with human FcγRIIa type H it was 135 % of IL6R-BF648/IL6R-L; with human FcγRIIb [2] it was 113 % of IL6R-BF648/IL6R-L; with human FcγRIIIa type V it was 157 % of IL6R-BF648/IL6R-L.

B13: GpH7-B3 variant P329H / GpL16-k0 (antibody, human IgG1)
heavy: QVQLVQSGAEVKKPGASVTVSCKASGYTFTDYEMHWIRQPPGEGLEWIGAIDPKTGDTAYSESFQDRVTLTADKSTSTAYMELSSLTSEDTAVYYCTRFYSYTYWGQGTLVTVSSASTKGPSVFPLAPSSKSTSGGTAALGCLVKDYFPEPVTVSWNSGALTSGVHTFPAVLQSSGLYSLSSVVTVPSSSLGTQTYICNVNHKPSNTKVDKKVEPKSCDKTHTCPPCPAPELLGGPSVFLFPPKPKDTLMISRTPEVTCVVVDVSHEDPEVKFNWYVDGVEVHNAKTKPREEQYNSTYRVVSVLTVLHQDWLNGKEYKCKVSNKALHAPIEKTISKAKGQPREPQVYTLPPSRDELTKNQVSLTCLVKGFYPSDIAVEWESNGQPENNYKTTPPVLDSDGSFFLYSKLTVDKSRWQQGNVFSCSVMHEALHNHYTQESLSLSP
light: DIVMTQSPLSLPVTPGEPASISCQASESLVHSNRNTYLHWYLQKPGQSPQLLIYKVSNRFSGVPDRFSGSGSGTDFTLKISRVEAEDVGVYYCSQNTHVPPTFGQGTKVEIE
notes: Anti-glypican-3 human IgG1 with B3 constant region (G1d with K439E); position by EU numbering
Take B13: the “relative binding activity (parent antibody = 100)” value (“relative binding activity” below) in assay [3] was -1 % of control; in the assay with human FcγRIa [4], 50 % of control; with human FcγRIIb [5] it was -3 % of control; in assay [6], -1 % of control; in [7], 0 % of control.

B14: GpH7-B3 variant I332K / GpL16-k0 (antibody, human IgG1)
heavy: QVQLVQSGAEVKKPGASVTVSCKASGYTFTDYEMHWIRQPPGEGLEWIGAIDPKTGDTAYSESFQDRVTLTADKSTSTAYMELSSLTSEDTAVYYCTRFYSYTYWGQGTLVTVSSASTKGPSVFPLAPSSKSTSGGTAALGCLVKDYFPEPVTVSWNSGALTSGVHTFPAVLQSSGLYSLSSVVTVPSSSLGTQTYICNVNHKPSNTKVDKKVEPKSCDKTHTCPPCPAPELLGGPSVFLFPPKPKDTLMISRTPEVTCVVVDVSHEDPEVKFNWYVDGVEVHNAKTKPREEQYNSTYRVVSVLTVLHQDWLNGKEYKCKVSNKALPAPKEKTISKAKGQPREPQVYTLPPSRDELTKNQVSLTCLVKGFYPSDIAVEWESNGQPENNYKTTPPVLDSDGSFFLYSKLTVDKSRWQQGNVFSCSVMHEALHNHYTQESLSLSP
light: B13 light
notes: Anti-glypican-3 human IgG1 with B3 constant region; position by EU numbering
For B14, the “relative binding activity” value was 12 % of control in assay [3], 77 % of control in the assay with human FcγRIa [4], 27 % of control in the assay with human FcγRIIb [5] and 59 % of control in assay [7].

B15: GpH7-B3 variant A330S / GpL16-k0 (antibody, human IgG1)
heavy: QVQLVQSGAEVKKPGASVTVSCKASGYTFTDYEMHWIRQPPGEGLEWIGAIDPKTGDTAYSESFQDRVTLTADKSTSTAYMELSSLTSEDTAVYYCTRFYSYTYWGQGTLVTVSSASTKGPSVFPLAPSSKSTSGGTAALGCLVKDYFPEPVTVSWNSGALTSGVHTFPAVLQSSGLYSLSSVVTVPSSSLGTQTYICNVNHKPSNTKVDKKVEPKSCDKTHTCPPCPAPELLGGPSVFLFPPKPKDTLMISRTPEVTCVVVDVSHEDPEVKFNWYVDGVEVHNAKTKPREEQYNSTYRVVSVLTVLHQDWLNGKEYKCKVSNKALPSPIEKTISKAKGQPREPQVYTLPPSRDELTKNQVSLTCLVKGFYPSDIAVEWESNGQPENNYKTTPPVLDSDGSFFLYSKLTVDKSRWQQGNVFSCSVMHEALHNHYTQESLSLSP
light: B13 light
notes: as for B14
In the case of B15, the “relative binding activity” value in assay [3] is 0 % of control; with human FcγRIa [4], 58 % of control; with human FcγRIIb [5], -3 % of control; in assay [6], 0 % of control; in assay [7], 0 % of control.

B16: GpH7-B3 variant P331G / GpL16-k0 (antibody, human IgG1)
heavy: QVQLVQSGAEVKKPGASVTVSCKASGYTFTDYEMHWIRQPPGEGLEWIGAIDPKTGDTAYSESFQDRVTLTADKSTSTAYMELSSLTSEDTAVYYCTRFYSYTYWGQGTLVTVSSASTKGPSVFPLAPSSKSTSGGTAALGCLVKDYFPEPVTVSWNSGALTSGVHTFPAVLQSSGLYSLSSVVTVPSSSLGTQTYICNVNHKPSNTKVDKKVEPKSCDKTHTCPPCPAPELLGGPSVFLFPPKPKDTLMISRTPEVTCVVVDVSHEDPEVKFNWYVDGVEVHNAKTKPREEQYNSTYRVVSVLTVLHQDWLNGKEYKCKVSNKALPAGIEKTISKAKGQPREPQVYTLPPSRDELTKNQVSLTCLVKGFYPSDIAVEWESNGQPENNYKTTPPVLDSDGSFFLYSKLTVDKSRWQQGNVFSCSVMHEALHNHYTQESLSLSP
light: B13 light
notes: as for B14
Regarding B16, the “relative binding activity” value is 13 % of control in assay [3] and 88 % of control with human FcγRIa [4].

B17: GpH7-B3 variant A330P / GpL16-k0 (antibody, human IgG1)
heavy: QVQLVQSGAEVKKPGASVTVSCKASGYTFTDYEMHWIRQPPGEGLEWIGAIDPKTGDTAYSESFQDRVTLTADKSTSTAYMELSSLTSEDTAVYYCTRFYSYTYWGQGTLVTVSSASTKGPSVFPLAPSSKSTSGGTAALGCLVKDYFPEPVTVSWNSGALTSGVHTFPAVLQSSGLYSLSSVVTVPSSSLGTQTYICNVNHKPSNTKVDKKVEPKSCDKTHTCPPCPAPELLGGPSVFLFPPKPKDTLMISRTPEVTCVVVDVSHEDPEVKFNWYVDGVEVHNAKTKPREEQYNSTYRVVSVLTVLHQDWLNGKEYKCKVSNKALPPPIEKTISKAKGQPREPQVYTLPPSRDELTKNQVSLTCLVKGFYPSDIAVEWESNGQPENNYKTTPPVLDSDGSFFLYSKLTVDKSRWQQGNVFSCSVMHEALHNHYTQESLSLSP
light: B13 light
notes: as for B14
On to B17, for which the “relative binding activity” value in assay [3] was 42 % of control; in the assay with human FcγRIa [4], 87 % of control; in the assay with human FcγRIIb [5], 39 % of control; in assay [6], 56 % of control; in [7], 25 % of control.

B18: GpH7-B3 variant P329G / GpL16-k0 (antibody, human IgG1)
heavy: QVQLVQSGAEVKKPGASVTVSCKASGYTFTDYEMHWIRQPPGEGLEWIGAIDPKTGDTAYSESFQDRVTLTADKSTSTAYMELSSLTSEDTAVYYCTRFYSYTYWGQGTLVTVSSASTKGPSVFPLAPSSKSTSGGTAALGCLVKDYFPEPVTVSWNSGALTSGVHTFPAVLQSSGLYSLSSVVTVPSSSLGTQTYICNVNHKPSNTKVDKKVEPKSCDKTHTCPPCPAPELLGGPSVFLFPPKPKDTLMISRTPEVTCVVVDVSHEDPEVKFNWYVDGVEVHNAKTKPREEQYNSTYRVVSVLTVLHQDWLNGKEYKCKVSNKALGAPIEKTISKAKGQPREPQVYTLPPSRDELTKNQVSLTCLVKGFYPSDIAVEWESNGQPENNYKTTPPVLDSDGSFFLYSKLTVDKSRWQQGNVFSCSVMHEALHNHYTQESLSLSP
light: B13 light
notes: as for B14
Turning to B18, the “relative binding activity” value in the assay with human FcγRIa [4] is 92 % of control; with human FcγRIIb [5], 0 % of control; in assay [6], 4 % of control; in assay [7], 1 % of control.
